Experiments:
[1] = target: RGS domain of Selaginella moellendorffii RGS (SmRGS), wild-type (Selaginella moellendorffii); test: ITC; SmGPA (syringe) injected into SmRGS (cell), 10:1; 20 °C; 50 mM Tris·HCl pH 8.0, 100 mM NaCl, 5 mM MgCl2, 100 mM GDP, 30 mM AlCl3, 20 mM NaF, 2 mM TCEP, 5% glycerol (GDP·Mg2+·AlF4- form that mimics the GTP-bound form); one-site model
[2] = target: SmRGS E313A (Selaginella moellendorffii); test: as above
[3] = target: SmRGS E355A (Selaginella moellendorffii); test: as above
[4] = target: SmRGS N357A (Selaginella moellendorffii); test: as above
OsRGA1 = target: T1, OsRGA1 (Oryza sativa, UniProt A2Y3B5); test: X-ray crystal structure, […] Å; assay type: binding; conditions: Mg2+; co-crystallised with 5 mM GDP, 4 °C; nucleotide site between Ras-like and helical domains
T1 construct: gene GPA1; full-length cDNA in pET-28a, N-terminal His6, E. coli BL21(DE3); tag cut with thrombin for crystals; four monomers in asymmetric unit, modelled within residues 39-375
T1 sequence (A2Y3B5 whole entry, the tested form may be a part): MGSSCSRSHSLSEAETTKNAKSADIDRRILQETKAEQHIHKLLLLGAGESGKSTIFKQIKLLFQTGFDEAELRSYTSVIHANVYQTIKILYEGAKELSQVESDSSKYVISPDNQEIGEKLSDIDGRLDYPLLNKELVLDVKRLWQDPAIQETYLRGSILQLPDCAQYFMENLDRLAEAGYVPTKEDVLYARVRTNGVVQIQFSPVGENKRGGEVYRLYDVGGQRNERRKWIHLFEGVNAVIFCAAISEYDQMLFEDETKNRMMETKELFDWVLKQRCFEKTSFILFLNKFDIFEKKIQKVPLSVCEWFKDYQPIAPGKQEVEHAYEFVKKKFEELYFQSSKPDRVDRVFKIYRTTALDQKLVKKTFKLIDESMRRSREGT

Compound	Kd [1] [nM]	dH [1] [kcal/mol]	also measured
SmGPA V189A (natural protein)	130	-2.89	–
SmGPA D125A (natural protein)	86	-6.53	–
SmGPA N216A (natural protein)	55	-4.81	–
Selaginella moellendorffii Gα (SmGPA), wild-type (natural protein)	23	-3.07	Kd [2]: 1050 nM; dH [2]: -3.74 kcal/mol; Kd [3]: 16 nM; dH [3]: -7.04 kcal/mol; Kd [4]: 6770 nM; dH [4]: -4.36 kcal/mol
SmGPA E246A (natural protein)	18400	-2.73	–
SmGPA Y126A (natural protein)	59	-7.45	–
SmGPA Q214A (natural protein)	270	-5.3	–
SmGPA R219A (natural protein)	1960	-6.29	–
Nc1nc2c(ncn2[C@@H]2O[C@H](COP(=O)(O)OP(=O)(O)O)[C@@H](O)[C@H]2O)c(=O)[nH]1 [GDP]	–	–	X-ray crystal structure, 2.99 Å (OsRGA1): interactions with the guanine ring and ribose of GDP are comparable to GTPγS bound in SmGPA
SmGPA F245A (natural protein)	16900	3.1	–
